This is an account of results in patent US20050053923A1.

Assay [1] addresses recombinant NS1 (rNS1), construct not stated. Kind of assay: sandwich ELISA: coated mAb 3.1112G captures rNS1, rabbit anti-WNV-NS1 polyclonal detection. (In general: An ELISA detects its analyte on a solid surface through an enzyme-linked reagent.)
Assay [2] addresses Semi-purified recombinant West Nile virus NS1 with 8-His tag (West Nile virus) (UniProt Q9Q6P4). The assay is described as above.
UniProt Q9Q6P4, sequence (Q9Q6P4 799-1144, tags or fused parts left off): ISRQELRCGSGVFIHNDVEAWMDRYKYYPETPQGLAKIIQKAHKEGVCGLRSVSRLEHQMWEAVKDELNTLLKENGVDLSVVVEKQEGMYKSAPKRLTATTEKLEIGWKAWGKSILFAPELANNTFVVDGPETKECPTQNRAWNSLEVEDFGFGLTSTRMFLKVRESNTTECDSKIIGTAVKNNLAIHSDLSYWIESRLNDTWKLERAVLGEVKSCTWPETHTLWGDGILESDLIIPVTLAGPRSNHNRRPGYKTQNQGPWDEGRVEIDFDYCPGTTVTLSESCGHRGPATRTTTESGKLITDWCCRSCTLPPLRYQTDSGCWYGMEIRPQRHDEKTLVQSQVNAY

For “monoclonal antibody against Kunjin NS1 (3.1112G, Chemicon International)”, the values for the O.D. in assay [1] and in assay [2] were 0.577 O.D. 450 nm and 0.887 O.D. 450 nm, respectively.
